Assay results from patent US11584938B2, “Plant EPSPS mutant containing L195P and S247G mutations and encoding gene and use thereof” (GEVOTO LLC, priority 2017, dated 2023).

System: transgenic rice plants
Experiment: glyphosate resistance of the EPSPS mutant in transgenic rice plants sprayed with Roundup 41% ammonium glyphosate
Format: in vivo, rice (Nipponbare)
Summary of the method: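 EPSPS mutant genes were cloned into pGVP1 and introduced into Nipponbare rice embryo-derived calluses via Agrobacterium EHA105 (OD 0.2, 10 min infection, 2–3 days co-culture at 25 °C in the dark). Calluses went through recovery, two 14-day screening rounds at 30 °C, two differentiation rounds and rooting to regenerate transgenic plants.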

[1] = 1× dosage 1060 g/hectare glyphosate sprayed, recorded on 10th day
[2] = 2× dosage 2120 g/hectare sprayed to plants surviving 1×, recorded 10 days later
[3] = 5× dosage 5300 g/hectare sprayed to plants surviving 2×, recorded 10 days later
[4] = 20× dosage 21200 g/hectare sprayed to plants surviving 5×, recorded 10 days later

B1: R3: rice EPSPS mutant, SEQ ID NO: 34, mutations L214(195)P and P116(101)S (protein)
chain: MASNAAAAAAKAEEIVLQPIREISGAVQLPGSKSLSNRILLLSALSEGTTVVDNLLNSEDVHYMLEALKALGLSVEADKVAKRAVVVGCGGKFPVEKDAKEEVQLFLGNAGTAMRSLTAAVTAAGGNATYVLDGVPRMRERPIGDLVVGLKQLGADVDCFLGTECPPVRVKGIGGLPGGKVKLSGSISSQYLSALLMAAPLALGDVEIEIIDKPISIPYVEMTLRLMERFGVKAEHSDSWDRFYIKGGQKYKSPGNAYVEGDASSASYFLAGAAITGGTVTVQGCGTTSLQGDVKFAEVLEMMGAKVTWTDTSVTVTGPPREPYGKKHLKAVDVNMNKMPDVAMTLAVVALFADGPTAIRDVASWRVKETERMVAIRTELTKLGASVEEGPDYCIITPPEKLNITAIDTYDDHRMAMAFSLAACADVPVTIRDPGCTRKTFPNYFDVLSTFVRN
%++&+++ (percentage of plant having medium and high glyphosate resistance to the total number of plants observed) [1]: 76.8% | number of plants denoted by + (low glyphosate resistance) [1]: 18 | number of plants denoted by ++ (medium glyphosate resistance) [1]: 39 | number of plants denoted by +++ (high glyphosate resistance) [1]: 24 | number of plants denoted by − (no glyphosate resistance) [1]: 1 | glyphosate resistance / survival of the rice transformed by the EPSPS, in words (1× glyphosate dosage): had relatively high resistance to glyphosate | %++&+++ (percentage of plant having medium and high glyphosate resistance to the total number of plants observed) [2]: 7.5% | number of plants denoted by + (low glyphosate resistance) [2]: 59 | number of plants denoted by ++ (medium glyphosate resistance) [2]: 12 | number of plants denoted by +++ (high glyphosate resistance) [2]: 10 | number of plants denoted by − (no glyphosate resistance) [2]: 1 | glyphosate resistance / survival of the rice transformed by the EPSPS, in words (2× glyphosate dosage): had relatively high resistance to glyphosate | &++&+++ (percentage of plant having medium and high glyphosate resistance to the total number of plants observed) [3]: 13.4% | number of plants denoted by + (low glyphosate resistance) [3]: 59 | number of plants denoted by ++ (medium glyphosate resistance) [3]: 11 | number of plants denoted by +++ (high glyphosate resistance) [3]: 0 | number of plants denoted by − (no glyphosate resistance) [3]: 12 | &++&+++ (percentage of plant having medium and high glyphosate resistance to the total number of plants observed) [4]: 7.3% | number of plants denoted by + (low glyphosate resistance) [4]: 28 | number of plants denoted by ++ (medium glyphosate resistance) [4]: 6 | number of plants denoted by +++ (high glyphosate resistance) [4]: 0 | number of plants denoted by − (no glyphosate resistance) [4]: 48
